Patent publication US20170212130A1 (ROCKEFELLER UNIVERSITY, published 2017)

Experiments:
GFP-His6 (eGFP) [1] = target: T1, GFP-His6 (eGFP) (Aequorea victoria, UniProt P42212 2-238 = GFP); assay: method not named in the sentence (in vitro Kd by SPR per FIG. 3 legend)
T1 construct: SPR and bead assays speak only of recombinant GFP or eGFP; also called recombinant GFP; A. victoria (Av) GFP

DsRed = target: T2, DsRed (Discosoma sp., UniProt Q9U6Y8 1-225); assay: bead binding: nanobody-Dynabeads + fluorescent protein, eluate on SDS-PAGE
T2 construct: Recombinant fluorescent protein; construct not described; also called standard DsRed; DsRed from Discosoma (Ds)

GFP-His6 (eGFP) [2] = target: T1, GFP-His6 (eGFP); assay: label under gel lane; legend: in vitro Kd for GFP by SPR
GFP-His6 (eGFP) [3] = target: T1, GFP-His6 (eGFP); assay: SPR, GFP immobilized
GFP-His6 (eGFP) [4] = target: T1, GFP-His6 (eGFP); assay: SPR, GFP immobilized, Langmuir fit; unit inferred
GFP-His6 (eGFP) [5] = target: T1, GFP-His6 (eGFP); assay: label under gel lane; legend: in vitro Kd for GFP by SPR; remark: listed apart in the source
GFPuv = target: T3, GFPuv (Aequorea victoria, UniProt P42212 1-229 = GFP, limits assumed); assay: NMR, 15N-1H HSQC of 15N-GFPuv with 1-1.2 molar excess of LaG
T3 construct: 15N-labeled for NMR; also called GFPuv variant; 15N-labeled GFPuv

GFP-His6 (eGFP) [6] = target: T1, GFP-His6 (eGFP); assay: SPR, GFP immobilized, Langmuir fit; no unit printed [continued]
GFP-His6 (eGFP) [7] = target: T4, GFP-His6 (eGFP) (Aequorea victoria, UniProt P42212 2-238 = GFP); assay: SPR, GFP immobilized; reference LaG-16 or LaG-2 alone
GFP-His6 (eGFP) [8] = target: T4, GFP-His6 (eGFP); assay: SPR, GFP immobilized
GFP-His6 (eGFP) [9] = target: T1, GFP-His6 (eGFP); assay: equilibrium bead binding: LaG-Dynabeads + 0.8-400 nM GFP, Coomassie band density fit
GFP-His6 (eGFP) [10] = target: T1, GFP-His6 (eGFP); assay: bead binding assay (footnote 1)

T2 sequence (Q9U6Y8 whole entry): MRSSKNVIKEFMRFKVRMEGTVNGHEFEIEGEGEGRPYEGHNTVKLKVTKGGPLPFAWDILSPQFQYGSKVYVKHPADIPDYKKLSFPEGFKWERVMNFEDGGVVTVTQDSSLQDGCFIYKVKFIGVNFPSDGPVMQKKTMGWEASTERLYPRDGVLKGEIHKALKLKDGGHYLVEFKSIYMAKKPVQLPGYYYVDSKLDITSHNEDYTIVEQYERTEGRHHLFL

| Binder | binding result (DsRed) | Kd (GFP-His6 (eGFP) [2]) [nM] | Kd (GFP-His6 (eGFP) [3]) [nM] | Kd (GFP-His6 (eGFP) [5]) [nM] | further results |
| --- | --- | --- | --- | --- | --- |
| LaG-41 (VHH) VHH: DVQLVESGGGLVQAGGSLRLSCAASGPTGAMAWFRQAPGKEREFVGGISGSETDTYYVDSVKGRFTVDRDNVKNTVYLQMNSLKPEDTAVYYCAARRRITLFTSRTDYDFWGRGTQVTV | no binding |  |  |  | Kd (GFP-His6 (eGFP) [1]): 0.9 nM |
| LaG-9 (VHH) VHH: DVQLVESGGGLVQAGGSLRLSCAASGRTFSTSAMGWFRQAPGKEREFVARITWSAGYTAYSDSVKGRFTISRDKAKNTVYLQMNSLKPEDTAVYYCASRSAGYSSSLTRREDYAYWGQGTQVTVS | no binding | 3.5 | 3.5 | 3.5 | Kd (GFP-His6 (eGFP) [4]): 3.5 nM |
| LaG-24 (VHH) VHH: DVQLVESGGGLVQPGGSLRLSCAASGEIASIIAIGWYRQAPGKQRESVALITRSGMITYGDSAQGRFTISRDDAKNTVYLHMDDLVPEDTAVYYCNAKKVSFGDYWGQGTQVTVS | no binding | 35 | 41 | 35 | binding result (GFPuv): no binding; Kd (GFP-His6 (eGFP) [6]): 41 nM |
| LaG16-LaG2 fusion with a flexible glycine-rich linker (G4S) (other) MAQVQLVESGGRLVQAGDSLRLSCAASGRTFSTSAMAWFRQAPGREREFVAAITWTVGNTILGDSVKGRFTISRDRAKNTVDLQMDNLEPEDTAVYYCSARSRGYVLSVLRSVDSYDYWGQGTQVTVSGGGGSMAQVQLVESGGGLVQAGGSLRLSCAASGRTFSNYAMGWFRQAPGKEREFVAAISWTGVSTYYADSVKGRFTISRDNDKNTVYVQMNSLIPEDTAIYYCAAVRARSFSDTYSRVNEYDYWGQGTQVTV |  |  |  |  | fold lower Kd than either LaG alone (GFP-His6 (eGFP) [7]): ~20 fold; Kd (GFP-His6 (eGFP) [8]): 0.036 nM |
| LaG-2 (VHH, that range is inconsistent in itself; not shown: PreScission Protease cleavage site and C-terminal 6xHis tag) VHH: QVQLVESGGGLVQAGGSLRLSCAASGRTFSNYAMGWFRQAPGKEREFVAAISWTGVSTYYADSVKGRFTISRDNDKNTVYVQMNSLIPEDTAIYYCAAVRARSFSDTYSRVNEYDYWGQGTQVTV | no binding |  | 16 |  | Kd (GFP-His6 (eGFP) [9]): 19 nM; Kd (GFP-His6 (eGFP) [10]): 19 nM |
